Laboratory results from publication doi:10.1101/2019.12.13.875658 (bioRxiv, 2019).

Legend:
cryo-EM structure = molecular target: the molecule itself; test: cryo-EM structure
β subunit of RNAP = β subunit of RNAP (E. coli, UniProt P0A8V2 1-1342); test: cryo-EM structure
β subunit of RNAP, sequence (P0A8V2 whole entry): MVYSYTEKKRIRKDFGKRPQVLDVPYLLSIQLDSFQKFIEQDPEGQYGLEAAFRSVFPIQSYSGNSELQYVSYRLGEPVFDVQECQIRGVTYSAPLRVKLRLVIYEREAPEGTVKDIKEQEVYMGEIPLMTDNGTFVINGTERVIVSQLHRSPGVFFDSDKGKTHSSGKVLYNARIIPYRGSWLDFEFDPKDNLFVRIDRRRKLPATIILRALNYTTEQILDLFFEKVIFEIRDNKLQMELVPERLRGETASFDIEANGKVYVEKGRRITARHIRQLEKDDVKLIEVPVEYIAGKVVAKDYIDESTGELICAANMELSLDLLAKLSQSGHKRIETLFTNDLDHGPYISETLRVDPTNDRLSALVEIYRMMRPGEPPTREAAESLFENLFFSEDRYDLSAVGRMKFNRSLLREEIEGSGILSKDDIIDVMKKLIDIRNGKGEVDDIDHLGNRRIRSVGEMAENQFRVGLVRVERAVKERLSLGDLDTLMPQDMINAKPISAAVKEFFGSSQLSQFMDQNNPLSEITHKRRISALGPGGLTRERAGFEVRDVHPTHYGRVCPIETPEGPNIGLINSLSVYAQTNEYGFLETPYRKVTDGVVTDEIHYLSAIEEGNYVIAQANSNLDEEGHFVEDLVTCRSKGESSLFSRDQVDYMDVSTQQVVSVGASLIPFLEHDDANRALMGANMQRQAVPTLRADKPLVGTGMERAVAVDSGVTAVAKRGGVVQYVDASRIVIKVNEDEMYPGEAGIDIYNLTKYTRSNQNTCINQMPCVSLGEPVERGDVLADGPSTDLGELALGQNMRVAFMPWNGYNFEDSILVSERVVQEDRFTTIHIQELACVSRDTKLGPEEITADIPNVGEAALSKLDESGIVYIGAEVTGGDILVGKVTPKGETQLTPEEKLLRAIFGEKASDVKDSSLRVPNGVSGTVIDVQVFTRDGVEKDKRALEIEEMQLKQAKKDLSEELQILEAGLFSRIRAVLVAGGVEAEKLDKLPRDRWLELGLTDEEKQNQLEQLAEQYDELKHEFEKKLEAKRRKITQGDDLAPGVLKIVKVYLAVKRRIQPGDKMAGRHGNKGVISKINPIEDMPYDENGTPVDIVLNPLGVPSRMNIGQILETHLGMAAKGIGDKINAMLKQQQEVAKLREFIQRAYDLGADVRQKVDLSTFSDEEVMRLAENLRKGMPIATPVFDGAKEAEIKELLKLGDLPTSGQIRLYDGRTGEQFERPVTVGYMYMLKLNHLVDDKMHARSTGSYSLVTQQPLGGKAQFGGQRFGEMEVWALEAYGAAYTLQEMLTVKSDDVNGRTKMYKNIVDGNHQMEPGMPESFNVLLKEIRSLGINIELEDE

B1: Cyclic AMP receptor protein (CAP) (natural protein)
chain: MVLGKPQTDPTLEWFLSHCHIHKYPSKSTLIHQGEKAETLYYIVKGSVAVLIKDEEGKEMILSYLNQGDFIGELGLFEEGQERSAWVRAKTACEVAEISYKKFRQLIQVNPDILMRLSAQMARRLQVTSEKVGNLAFLDVTGRIAQTLLNLAKQPDAMTHPDGMQIKITRQEIGQIVGCSRETVGRILKMLEDQNLISAHGKTIVVYGTR
**Q.** What does the source list for B1?
**A.** stoichiometry N (cryo-EM structure): 2; binding result (β subunit of RNAP): binds
